According to patent publication US20040024185A1:

Columns and labels:
Experiment in all cases: cell-based or functional assay
[1] = target: T1, NF-AT4 expressed from an expression construct
T1 sequence (Q12968 2-1075, species assumed, looked up): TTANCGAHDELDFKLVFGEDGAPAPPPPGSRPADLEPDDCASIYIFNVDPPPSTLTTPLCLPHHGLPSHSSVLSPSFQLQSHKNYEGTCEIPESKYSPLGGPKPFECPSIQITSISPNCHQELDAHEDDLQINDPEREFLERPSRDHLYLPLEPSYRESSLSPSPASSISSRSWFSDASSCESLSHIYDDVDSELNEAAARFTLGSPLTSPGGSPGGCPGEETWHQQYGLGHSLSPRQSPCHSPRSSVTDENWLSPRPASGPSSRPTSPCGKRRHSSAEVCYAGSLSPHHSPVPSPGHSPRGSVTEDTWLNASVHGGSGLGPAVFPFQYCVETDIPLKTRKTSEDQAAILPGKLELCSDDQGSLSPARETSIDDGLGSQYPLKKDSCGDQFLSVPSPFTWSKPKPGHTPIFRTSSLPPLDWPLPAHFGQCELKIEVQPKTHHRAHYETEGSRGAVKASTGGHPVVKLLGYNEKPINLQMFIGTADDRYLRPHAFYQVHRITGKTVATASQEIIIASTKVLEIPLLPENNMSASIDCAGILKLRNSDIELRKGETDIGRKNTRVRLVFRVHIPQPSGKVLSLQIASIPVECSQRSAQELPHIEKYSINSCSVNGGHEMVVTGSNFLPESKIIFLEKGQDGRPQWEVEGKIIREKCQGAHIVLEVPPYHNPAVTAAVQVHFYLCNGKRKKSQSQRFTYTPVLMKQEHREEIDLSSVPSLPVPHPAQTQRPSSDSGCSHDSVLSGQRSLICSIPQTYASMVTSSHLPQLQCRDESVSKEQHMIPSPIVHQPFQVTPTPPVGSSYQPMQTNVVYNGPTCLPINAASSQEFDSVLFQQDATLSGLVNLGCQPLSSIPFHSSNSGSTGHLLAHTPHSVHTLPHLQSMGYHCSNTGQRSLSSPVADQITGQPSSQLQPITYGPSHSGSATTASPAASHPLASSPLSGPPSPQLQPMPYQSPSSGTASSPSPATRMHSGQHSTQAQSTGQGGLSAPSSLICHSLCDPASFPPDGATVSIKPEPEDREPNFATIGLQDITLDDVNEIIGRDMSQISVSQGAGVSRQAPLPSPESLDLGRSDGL

[2] = target: T2, NF-ATp expressed from an NF-ATp expression plasmid in HepG2 cells
T2 sequence (Q13469 1-925, species assumed, looked up): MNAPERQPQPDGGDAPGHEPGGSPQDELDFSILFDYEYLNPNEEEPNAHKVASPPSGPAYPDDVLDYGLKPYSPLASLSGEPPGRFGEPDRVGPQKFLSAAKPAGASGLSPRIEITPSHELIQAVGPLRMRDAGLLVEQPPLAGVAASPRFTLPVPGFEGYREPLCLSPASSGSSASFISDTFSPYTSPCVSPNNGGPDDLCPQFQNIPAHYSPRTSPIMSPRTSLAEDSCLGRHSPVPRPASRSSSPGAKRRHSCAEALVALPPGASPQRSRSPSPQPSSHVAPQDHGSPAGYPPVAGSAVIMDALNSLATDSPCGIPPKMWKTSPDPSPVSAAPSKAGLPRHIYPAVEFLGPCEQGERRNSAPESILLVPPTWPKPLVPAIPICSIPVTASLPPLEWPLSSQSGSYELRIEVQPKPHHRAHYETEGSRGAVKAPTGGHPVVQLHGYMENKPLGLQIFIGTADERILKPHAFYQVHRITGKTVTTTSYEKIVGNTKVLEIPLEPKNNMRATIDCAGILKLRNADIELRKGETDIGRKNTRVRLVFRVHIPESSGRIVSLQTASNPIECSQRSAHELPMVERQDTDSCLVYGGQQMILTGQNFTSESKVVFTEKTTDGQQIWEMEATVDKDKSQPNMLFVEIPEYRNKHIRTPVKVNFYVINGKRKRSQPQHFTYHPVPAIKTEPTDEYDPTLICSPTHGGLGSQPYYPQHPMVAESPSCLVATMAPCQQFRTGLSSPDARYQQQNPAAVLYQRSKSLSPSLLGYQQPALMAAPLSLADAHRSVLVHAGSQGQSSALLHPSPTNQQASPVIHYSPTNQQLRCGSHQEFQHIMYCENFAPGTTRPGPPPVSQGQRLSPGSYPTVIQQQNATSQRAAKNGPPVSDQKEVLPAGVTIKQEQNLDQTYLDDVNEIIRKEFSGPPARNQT

[3] = target: T3, NF-AT3 expressed from an expression construct in HepG2 cells
T3 sequence (Q14934 1-902, species assumed, looked up): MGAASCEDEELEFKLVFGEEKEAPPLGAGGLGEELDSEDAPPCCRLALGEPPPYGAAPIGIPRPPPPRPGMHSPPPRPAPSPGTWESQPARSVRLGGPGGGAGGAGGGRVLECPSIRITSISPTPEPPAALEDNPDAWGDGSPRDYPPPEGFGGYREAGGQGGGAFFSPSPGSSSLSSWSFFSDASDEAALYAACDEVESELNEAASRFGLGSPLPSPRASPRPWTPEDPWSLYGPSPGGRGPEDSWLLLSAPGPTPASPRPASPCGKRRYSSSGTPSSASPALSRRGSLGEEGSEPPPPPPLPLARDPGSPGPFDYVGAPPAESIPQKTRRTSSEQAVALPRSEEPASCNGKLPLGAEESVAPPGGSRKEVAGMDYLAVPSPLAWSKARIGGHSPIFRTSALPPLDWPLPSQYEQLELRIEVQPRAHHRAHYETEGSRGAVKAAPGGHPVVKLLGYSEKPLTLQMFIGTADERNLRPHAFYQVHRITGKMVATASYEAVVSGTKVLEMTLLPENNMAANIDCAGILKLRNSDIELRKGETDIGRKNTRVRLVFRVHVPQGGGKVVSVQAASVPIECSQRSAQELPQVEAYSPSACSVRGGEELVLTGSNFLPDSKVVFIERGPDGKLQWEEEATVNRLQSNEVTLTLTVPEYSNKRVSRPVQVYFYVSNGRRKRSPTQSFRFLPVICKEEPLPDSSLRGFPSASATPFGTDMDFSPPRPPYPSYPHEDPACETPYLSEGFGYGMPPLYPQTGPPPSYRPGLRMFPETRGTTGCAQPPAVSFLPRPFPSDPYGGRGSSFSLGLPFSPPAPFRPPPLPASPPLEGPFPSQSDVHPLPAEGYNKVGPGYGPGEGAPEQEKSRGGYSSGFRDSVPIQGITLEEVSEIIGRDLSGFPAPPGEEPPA

[4] = target: T4, NF-ATc expressed from an expression construct in HepG2 cells
T4 sequence (O95644 1-943, species assumed, looked up): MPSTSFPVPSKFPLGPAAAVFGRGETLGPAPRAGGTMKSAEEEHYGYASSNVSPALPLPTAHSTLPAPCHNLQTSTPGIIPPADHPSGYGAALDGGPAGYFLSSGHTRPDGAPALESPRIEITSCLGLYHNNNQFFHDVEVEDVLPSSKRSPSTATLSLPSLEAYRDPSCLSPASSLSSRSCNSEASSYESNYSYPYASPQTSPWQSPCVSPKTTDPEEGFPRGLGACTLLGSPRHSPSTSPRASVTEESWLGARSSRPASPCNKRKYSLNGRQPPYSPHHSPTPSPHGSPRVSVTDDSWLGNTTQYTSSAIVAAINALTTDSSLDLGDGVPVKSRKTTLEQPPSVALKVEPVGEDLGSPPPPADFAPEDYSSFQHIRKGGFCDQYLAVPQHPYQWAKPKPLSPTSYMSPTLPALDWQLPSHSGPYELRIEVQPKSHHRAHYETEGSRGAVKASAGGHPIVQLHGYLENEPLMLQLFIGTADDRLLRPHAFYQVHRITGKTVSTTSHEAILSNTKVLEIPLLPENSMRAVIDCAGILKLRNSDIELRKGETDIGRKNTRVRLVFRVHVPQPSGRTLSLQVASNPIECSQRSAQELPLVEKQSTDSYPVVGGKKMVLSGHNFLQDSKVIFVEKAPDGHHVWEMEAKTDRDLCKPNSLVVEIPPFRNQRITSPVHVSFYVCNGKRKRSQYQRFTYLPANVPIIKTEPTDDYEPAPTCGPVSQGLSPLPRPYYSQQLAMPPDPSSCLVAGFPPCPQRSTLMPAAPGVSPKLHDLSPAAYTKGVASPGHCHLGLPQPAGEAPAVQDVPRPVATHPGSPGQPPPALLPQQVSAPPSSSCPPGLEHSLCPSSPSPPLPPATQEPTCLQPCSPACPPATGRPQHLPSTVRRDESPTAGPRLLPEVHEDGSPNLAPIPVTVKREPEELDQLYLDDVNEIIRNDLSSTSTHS

transactivation of a 3X NF-AT-CAT reporter in HepG2 cells [1]: 2 fold
CAT activity of a 3X NF-AT-CAT reporter in HepG2 cells, relative to NF-ATp alone [2]: 4 to 5 fold
CAT activity of a 3X NF-AT-CAT reporter in HepG2 cells, relative to vector alone [2]: 25 to 30 fold
transactivation of a 3X NF-AT-CAT reporter in HepG2 cells [3]: 3 fold
transactivation of a 3X NF-AT-CAT reporter in HepG2 cells [4]: 4 fold
B1: NIP45 expressed from a NIP45 expression plasmid (protein)
chain: MAEPLRGRGPRSRGGRGARRARGARGRCPRARQSPARLIPDTVLVDLVSDSDEEVLEVADPVEVPVARLPAPAKPEQDSDSDSEGAAEGPAGAPRTLVRRRRRRLLDPGEAPVVPVYSGKVQSSLNLIPDNSSLLKLCPSEPEDEADLTNSGSSPSEDDALPSGSPWRKKLRKKCEKEEKKMEEFPDQDISPLPQPSSRNKSRKHTEALQKLREVNKRLQDLRSCLSPKQHQSPALQSTDDEVVLVEGPVLPQSSRLFTLKIRCRADLVRLPVRMSEPLQNVVDHMANHLGVSPNRILLLFGESELSPTATPSTLKLGVADIIDCVVLASSSEATETSQELRLRVQGKEKHQMLEISLSPDSPLKVLMSHYEEAMGLSGHKLSFFFDGTKLSGKELPADLGLESGDLIEVWG
